In patent US9896489B2, “Family of synthetic polynucleotide-binding peptides and uses thereof” (Eastern Virginia Medical School, priority 2012, dated 2018):

T1: p110^RB, the hypophosphorylated form of Rb (Homo sapiens, UniProt P06400)
T1 construct: In proliferating cells, the Rb protein existed in several states of phosphorylation; endogenous in cells; host or cells: WR2E3 cells (inferred as the source of the extract put on the beads)
T1 sequence (P06400 1-928): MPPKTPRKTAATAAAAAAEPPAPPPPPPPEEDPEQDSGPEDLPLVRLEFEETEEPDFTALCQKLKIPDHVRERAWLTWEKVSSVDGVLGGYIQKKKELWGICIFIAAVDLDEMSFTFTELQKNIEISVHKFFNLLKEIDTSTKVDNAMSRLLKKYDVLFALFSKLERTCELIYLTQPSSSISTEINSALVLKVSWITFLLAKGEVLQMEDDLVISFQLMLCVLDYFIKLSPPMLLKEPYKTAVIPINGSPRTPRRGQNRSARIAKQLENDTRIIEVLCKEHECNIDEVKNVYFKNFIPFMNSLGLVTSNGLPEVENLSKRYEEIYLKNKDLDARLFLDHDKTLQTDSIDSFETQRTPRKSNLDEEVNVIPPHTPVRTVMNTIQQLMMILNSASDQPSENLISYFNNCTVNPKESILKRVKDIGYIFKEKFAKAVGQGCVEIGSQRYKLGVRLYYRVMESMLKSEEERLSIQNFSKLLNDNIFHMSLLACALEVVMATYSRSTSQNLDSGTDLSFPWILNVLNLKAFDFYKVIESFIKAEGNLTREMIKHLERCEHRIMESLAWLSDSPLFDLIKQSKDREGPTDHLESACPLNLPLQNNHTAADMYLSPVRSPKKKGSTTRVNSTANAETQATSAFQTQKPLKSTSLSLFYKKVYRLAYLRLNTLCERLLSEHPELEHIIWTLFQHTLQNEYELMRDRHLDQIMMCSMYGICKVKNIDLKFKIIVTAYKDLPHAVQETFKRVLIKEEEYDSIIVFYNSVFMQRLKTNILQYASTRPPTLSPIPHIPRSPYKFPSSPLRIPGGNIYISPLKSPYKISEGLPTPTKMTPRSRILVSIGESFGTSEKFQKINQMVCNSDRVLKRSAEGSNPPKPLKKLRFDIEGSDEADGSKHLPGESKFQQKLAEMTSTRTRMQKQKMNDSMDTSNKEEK


Key:
NIH3T3 cells = experiment: Purα injected into NIH3T3 cells at cell-cycle transition points; format: cell-based
Procedure: Purα was injected into NIH3T3 cells during various cell-cycle transition points to determine the effects of elevated Purα levels at different phases of the cell cycle. […] In FIG. 2, the clear bar represents dividing cells, the black bar represents non-dividing cells, and the shaded bar represents rapid cell death.

[1] = test system: ras-transformed and non-transformed NIH3T3 cells; experiment: Cell cycle progression (FACS DNA content) in cells stably transfected to over-express Purα; format: cell-based; settings: two to five-fold elevated levels of Purα in stably transfected cell lines
From the text: Cells were released from a double thymidine block, which arrests cells upon entry to S phase, into normal growth medium. Samples were subjected to fluorescence-activated cell sorting to determine cellular DNA content.
Stably transfected or co-transfected pools and transfected clones are shown on the right.
A pool of ras-transformed cells were stably transfected or co-transfected with the following: (a) pBABE, an empty vector; (b) pBABE+pBK, both empty expression vectors; (c) pBABE+pBKPurα, to over-express Purα; (d) pBABE+pBKPurα^low to express Purα at a level near that of endogenous Purα; (e) pBABE+pBKPurα^high to express Purα at a level nearly 5-fold that of endogenous Purα; (f) pEBV, an empty expression vector (g) pEBVPurα to over-express Purα. 4N indicates completion of DNA synthesis.

[2] = test system: ras-transformed NIH3T3 cells; experiment: Anchorage independent growth of ras-transformed NIH3T3 cells; format: cell-based; settings: pBABE and pBKPurα transfected, puromycin selected
From the text: Purα also antagonizes colony formation and anchorage-independent growth related to ras-transformation of NIH3T3 cells. Ras-transformed cells were transfected with pBABE (empty vector) and either pBK (empty vector) or pBKPurα expression construct and selected for puromycin resistance. Referring to FIG. 4, panel A (pBABE) and panel B (pBABE+pBK) show anchorage independent cell growth.

[3] = test system: ALS ssDNA (GGGGCC hexanucleotide repeat expanded at C9ORF72); experiment: Electrophoretic mobility shift assay with ALS ssDNA; format: binding; settings: for binding of ALS repeat (qualitative): DNA concentration courses
Procedure: Infrared oligonucleotides representing a GGGGCC hexanucleotide repeat expanded at C9ORF72 in ALS patients were custom ordered and are referred to as ALS ssDNA. 4% polyacrylamide gel electrophoresis was performed using IR-labeled oligonucleotides and imaged using the Li-Cor Odyssey IR imaging instrumentation and software.
Electrophoretic Mobility Shift Assay-Various combinations of Purα, Purβ, TZIP, and IR-labeled oligonucleotides were prepared in the 5× Johnson binding buffer (Bergemann, Andrew D and Johnson, Edward M (1992), The HeLa Pur Factor Binds Single-Stranded DNA at a Specific Element Conserved in Gene Flanking Regions and Origins of DNA Replication. Molecular and Cellular Biology, vol 12:3 (1257-1265), incorporated by reference herein in its entirety), adjusted to 5 mM DTT, 5 mM EDTA, and 0.5% Tween 20. 4% polyacrylamide gel electrophoresis was performed on samples and imaged with the Li-Cor Odyssey instrumentation and software. Densitometry was performed on the DNA concentration course experiments using the Li-Cor Odyssey software.
A Kd value obtained for Purβ was complex and not readily interpretable.

[4] = biological target: T1, p110^RB, the hypophosphorylated form of Rb; experiment: GST bead pull-down of Rb, anti-Rb blot; format: binding; settings: protein on glutathione-agarose beads
Procedure: Rb was detected in extracts of monkey CV-1 cells complexed with Purα. These complexes can be immunoextracted from cell lysates using monoclonal antibodies to either Purα or Rb.
Proteins expressed in bacteria were bound to glutathione-agarose beads. Unfused GST was prepared in the same manner for use as a control. Beads containing equivalent amounts of each protein were used for each lane. Beads were collected, washed, and bound proteins were subjected to electrophoresis. The proteins were then blotted and probed with anti-Rb monoclonal antibody.
In contrast, binding of Rb to control GST alone was nil. IPP represents Rb immunoprecipitated from WR2E3 cells using rabbit polyclonal anti-Rb antibody. In proliferating cells, the Rb protein existed in several states of phosphorylation, the hypophosphorylated state, p110^RB, migrating more rapidly on SDS gels (lane 1).

[5] = test system: FXS ssDNA (G-rich trinucleotide DNA repeats at FMR1); experiment: Electrophoretic mobility shift assay with FXS ssDNA; format: binding
From the text: A GE Microspin GST purification module was used to purify GST-tagged Purα and Purβ from bacterial lysate. Polyacrylamide gel electrophoresis with SDS-Page gels and molecular markers were used to verify that GST, Purα, and Purβ were expressed and purified. Expressed proteins were detected using antibodies against Purα and Purβ, including monoclonal mouse anti-Pur antibody developed in Johnson laboratory (clone 10B12) and polyclonal antibody against Purβ (Abcam). Polyacrylamide gel electrophoresis with TBE buffer was used for gel-mobility shift assay. Infrared-labeled oligonucleotides representing G-rich trinucleotide DNA repeats at FMR1 in patients with Fragile X Syndrome (FXS) were custom ordered and are referred to herein as FXS ssDNA. Infrared-labeled oligonucleotide substrates in agarose and polyacrylamide gels were detected through the use of the Odyssey (LICOR) instrumentation and software. […] When Purα and Purβ are combined (FIG. 17), by increasing the amount of Purβ, the DNA is shifted more to the top of the gel. Therefore, there is more binding of the proteins to the DNA. […] In FIG. 19, TZIP enhances the mobility shift of ssDNA FXS in the presence of Purα.

Molecule	effect on cell cycle / cell fate (NIH3T3 cells; introduction of Purα in G1 phase)	effect on cell cycle / cell fate (NIH3T3 cells; introduction of Purα in later phases, such as G2-M phase)	S phase entry and progression [1]	anchorage independent growth [2]	binding of ALS repeat (qualitative) [3]	Kd ([3]; densitometry of DNA concentration course) [nM]	binding to Rb [4]	binding / mobility shift of ssDNA FXS (qualitative) [5]
Purα: sequence-specific single-stranded DNA-binding protein; GST-tagged, purified from bacteria in the EMSA (protein, left off: a dimerising Fc or GST, GST-tagged, purified from bacteria in the EMSA) MADRDSGSEQGGAALGSGGSLGHPGSGSGSGGGGGGGGGGGGSGGGGGGAPGGLQHETQELASKRVDIQNKRFYLDVKQNAKGRFLKIAEVGAGGNKSRLTLSMSVAVEFRDYLGDFIEHYAQLGPSQPPDLAQAQDEPRRALKSEFLVRENRKYYMDLKENQRGRFLRIRQTVNRGPGLGSTQGQTIALPAQGLIEFRDALAKLIDDYGVEEEPAELPEGTSLTVDNKRFFFDVGSNKYGVFMRVSEVKPTYRNSITVPYKVWAKFGHTFCKYSEEMKKIQEKQREKRAACEQLHQQQQQQQEETAAATLLLQGEEEGEED	arrested cells at the G1-S boundary, causing programmed cell death	arrested, but did not prevent, complete replication of the genome	retarded entry into and progression through S phase	repressed anchorage independent growth	strongly bind the ALS repeat in low concentrations	16		
Gst-Purα: GST fusion of Purα expressed in bacteria, bound to glutathione-agarose beads (protein, left off: a dimerising Fc or GST) MADRDSGSEQGGAALGSGGSLGHPGSGSGSGGGGGGGGGGGGSGGGGGGAPGGLQHETQELASKRVDIQNKRFYLDVKQNAKGRFLKIAEVGAGGNKSRLTLSMSVAVEFRDYLGDFIEHYAQLGPSQPPDLAQAQDEPRRALKSEFLVRENRKYYMDLKENQRGRFLRIRQTVNRGPGLGSTQGQTIALPAQGLIEFRDALAKLIDDYGVEEEPAELPEGTSLTVDNKRFFFDVGSNKYGVFMRVSEVKPTYRNSITVPYKVWAKFGHTFCKYSEEMKKIQEKQREKRAACEQLHQQQQQQQEETAAATLLLQGEEEGEED							bind exclusively to the hypophosphorylated forms of p110^RB	
Purβ: Pur family protein, GST-tagged, purified from bacterial lysate (protein, UniProt Q96QR8 2-312, looked up, GST tag, Pur family protein, GST-tagged, purified from bacterial lysate) Transcriptional regulator …: ADGDSGSERGGGGGPCGFQPASRGGGEQETQELASKRLDIQNKRFYLDVKQNAKGRFLKIAEVGAGGSKSRLTLSMAVAAEFRDSLGDFIEHYAQLGPSSPEQLAAGAEEGGGPRRALKSEFLVRENRKYYLDLKENQRGRFLRIRQTVNRGGGGFGAGPGPGGLQSGQTIALPAQGLIEFRDALAKLIDDYGGEDDELAGGPGGGAGGPGGGLYGELPEGTSITVDSKRFFFDVGCNKYGVFLRVSEVKPSYRNAITVPFKAWGKFGGAFCRYADEMKEIQERQRDKLYERRGGGSGGGEESEGEEVDED					bound the ALS repeat to a much smaller degree			does not shift the ssDNA FXS as strongly as Purα
